Measurements as given in patent US20260209362A1 (VIB VZW, published 2026).

T1: biotinylated recombinant human IL-12Rβ2 (human, UniProt Q99665 24-622, random biotinylated)
T1 construct: Recombinant protein produced in-house, biotinylated; also called hIL-12RB2; human IL-12RB2
T1 sequence: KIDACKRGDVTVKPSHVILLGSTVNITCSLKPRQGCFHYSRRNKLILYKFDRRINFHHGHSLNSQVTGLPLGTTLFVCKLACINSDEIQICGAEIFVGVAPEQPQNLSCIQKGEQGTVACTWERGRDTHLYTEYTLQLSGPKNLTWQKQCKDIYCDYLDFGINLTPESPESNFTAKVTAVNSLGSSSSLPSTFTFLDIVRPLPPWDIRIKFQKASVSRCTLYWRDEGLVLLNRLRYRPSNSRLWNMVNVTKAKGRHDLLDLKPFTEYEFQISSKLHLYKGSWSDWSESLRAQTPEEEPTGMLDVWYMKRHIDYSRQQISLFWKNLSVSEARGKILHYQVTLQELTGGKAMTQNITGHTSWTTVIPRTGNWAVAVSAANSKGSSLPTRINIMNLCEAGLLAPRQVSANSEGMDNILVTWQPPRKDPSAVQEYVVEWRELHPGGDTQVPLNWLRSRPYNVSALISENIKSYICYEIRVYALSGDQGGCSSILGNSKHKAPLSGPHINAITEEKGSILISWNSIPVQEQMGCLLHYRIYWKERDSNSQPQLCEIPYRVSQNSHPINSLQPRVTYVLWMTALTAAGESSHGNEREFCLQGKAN

T2: biotinylated recombinant mouse IL-12Rβ2 (mouse, UniProt P97378 24-637, random biotinylated)
T2 construct: Recombinant protein produced in-house, biotinylated; also called mIL-12RB2; mouse IL-12RB2
T2 sequence: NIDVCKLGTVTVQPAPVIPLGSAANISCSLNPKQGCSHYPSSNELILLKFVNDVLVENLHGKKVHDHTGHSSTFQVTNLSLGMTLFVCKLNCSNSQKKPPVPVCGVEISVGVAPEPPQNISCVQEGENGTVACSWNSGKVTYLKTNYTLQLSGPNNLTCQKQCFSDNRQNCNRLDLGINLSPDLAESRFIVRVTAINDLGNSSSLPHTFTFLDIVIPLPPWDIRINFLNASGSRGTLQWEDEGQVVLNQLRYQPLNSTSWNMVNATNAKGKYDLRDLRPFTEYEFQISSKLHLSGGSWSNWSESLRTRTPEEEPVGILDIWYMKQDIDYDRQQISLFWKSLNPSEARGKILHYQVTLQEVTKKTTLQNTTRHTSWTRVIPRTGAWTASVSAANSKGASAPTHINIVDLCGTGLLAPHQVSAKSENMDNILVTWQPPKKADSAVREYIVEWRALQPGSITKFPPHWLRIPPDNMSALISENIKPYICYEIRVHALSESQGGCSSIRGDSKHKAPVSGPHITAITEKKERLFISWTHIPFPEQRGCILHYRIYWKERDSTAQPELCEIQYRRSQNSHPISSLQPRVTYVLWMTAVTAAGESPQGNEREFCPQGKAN

T3: human IL-12Rβ2 expressed on cells (human, UniProt Q99665 24-862)
T3 construct: HEK293T cells transiently transfected with a human IL-12Rβ2 plasmid (Genscript OHu21785); also called hIL-12RB2
T3 sequence: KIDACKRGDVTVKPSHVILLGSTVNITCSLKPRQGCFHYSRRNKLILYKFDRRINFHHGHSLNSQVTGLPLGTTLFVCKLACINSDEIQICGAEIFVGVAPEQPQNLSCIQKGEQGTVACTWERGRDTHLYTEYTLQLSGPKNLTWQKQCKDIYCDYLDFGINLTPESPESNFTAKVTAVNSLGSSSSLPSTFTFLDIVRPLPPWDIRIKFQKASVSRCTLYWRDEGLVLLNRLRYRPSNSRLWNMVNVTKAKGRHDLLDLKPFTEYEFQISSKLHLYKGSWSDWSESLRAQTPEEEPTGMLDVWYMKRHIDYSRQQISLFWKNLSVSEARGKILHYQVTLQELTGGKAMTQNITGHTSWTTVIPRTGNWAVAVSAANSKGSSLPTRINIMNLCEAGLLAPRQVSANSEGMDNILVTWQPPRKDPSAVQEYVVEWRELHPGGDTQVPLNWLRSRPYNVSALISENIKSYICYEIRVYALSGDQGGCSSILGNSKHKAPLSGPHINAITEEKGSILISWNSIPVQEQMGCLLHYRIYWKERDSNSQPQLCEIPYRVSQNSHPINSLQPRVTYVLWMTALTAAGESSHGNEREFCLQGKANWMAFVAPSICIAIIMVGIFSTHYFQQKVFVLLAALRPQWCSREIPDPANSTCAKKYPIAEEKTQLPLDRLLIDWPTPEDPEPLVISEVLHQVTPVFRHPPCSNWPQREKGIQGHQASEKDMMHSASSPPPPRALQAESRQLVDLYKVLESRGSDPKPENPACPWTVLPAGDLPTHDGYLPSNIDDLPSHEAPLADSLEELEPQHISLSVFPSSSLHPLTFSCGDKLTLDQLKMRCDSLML

T4: biotinylated recombinant human IL-12Rβ2 (produced in-house) (human, UniProt Q99665 24-622, random biotinylated)
T4 construct: also called hIL-12RB2; hIL12RB2
T4 sequence: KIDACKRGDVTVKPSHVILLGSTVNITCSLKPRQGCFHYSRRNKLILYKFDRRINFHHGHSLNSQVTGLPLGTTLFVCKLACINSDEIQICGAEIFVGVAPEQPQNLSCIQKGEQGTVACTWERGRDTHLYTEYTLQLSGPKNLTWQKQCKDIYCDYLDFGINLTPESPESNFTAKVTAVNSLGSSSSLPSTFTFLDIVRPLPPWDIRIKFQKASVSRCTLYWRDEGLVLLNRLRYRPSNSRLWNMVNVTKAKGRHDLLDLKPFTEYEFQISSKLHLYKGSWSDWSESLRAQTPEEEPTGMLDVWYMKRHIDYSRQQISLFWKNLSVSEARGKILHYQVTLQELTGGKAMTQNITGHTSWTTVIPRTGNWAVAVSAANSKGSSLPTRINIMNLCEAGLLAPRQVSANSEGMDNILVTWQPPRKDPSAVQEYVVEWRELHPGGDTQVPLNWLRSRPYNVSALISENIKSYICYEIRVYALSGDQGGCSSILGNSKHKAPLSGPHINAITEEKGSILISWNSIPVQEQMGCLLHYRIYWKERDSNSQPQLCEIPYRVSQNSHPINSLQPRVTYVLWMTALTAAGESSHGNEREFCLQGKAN

T5: biotinylated recombinant mouse IL-12Rβ2 (produced in-house) (mouse, UniProt P97378 24-637, random biotinylated)
T5 construct: also called mIL-12RB2; mIL12RB2
T5 sequence: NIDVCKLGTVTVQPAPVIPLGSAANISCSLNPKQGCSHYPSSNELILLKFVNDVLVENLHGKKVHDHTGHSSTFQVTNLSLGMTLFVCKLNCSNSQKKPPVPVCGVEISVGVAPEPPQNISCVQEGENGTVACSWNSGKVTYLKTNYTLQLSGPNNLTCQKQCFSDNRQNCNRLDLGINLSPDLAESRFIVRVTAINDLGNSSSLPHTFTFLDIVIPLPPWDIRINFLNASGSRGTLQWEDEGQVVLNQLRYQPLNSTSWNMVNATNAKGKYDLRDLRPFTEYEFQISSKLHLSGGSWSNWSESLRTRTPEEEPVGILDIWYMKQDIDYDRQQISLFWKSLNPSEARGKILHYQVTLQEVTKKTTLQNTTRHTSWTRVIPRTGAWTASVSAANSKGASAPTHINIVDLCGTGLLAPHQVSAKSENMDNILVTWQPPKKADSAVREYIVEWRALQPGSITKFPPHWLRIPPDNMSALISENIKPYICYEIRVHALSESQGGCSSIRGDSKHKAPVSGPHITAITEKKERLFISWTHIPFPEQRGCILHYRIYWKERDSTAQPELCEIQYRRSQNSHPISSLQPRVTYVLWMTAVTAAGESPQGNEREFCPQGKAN


Key:
[1] = biological target: T1, biotinylated recombinant human IL-12Rβ2; test: BLI (Octet), periplasmic extract on biotinylated hIL-12Rβ2 on streptavidin tips
[2] = biological target: T2, biotinylated recombinant mouse IL-12Rβ2; test: BLI (Octet), periplasmic extract on biotinylated mIL-12Rβ2 on streptavidin tips
[3] = biological target: T1, biotinylated recombinant human IL-12Rβ2; test: BLI (Octet), periplasmic extract on biotinylated hIL-12Rβ2 on streptavidin tips, 1:1 model
[4] = biological target: T1, biotinylated recombinant human IL-12Rβ2; test: ELISA, periplasmic extract on biotinylated hIL-12Rβ2, signal over control wells
[5] = biological target: T2, biotinylated recombinant mouse IL-12Rβ2; test: ELISA, periplasmic extract on biotinylated mIL-12Rβ2, signal over control wells
[6] = biological target: T2, biotinylated recombinant mouse IL-12Rβ2; test: BLI (Octet), periplasmic extract on biotinylated mIL-12Rβ2 on streptavidin tips, 1:1 model
[7] = biological target: T3, human IL-12Rβ2 expressed on cells; test: flow cytometry, P.E. VHH on HEK293T cells transiently expressing hIL-12RB2
[8] = biological target: T4, biotinylated recombinant human IL-12Rβ2 …; test: BLI (Octet), P.E. VHH on immobilised biotinylated hIL-12RB2
[9] = biological target: T4, biotinylated recombinant human IL-12Rβ2 …; test: ELISA, P.E. VHH on biotinylated hIL-12RB2, signal ratio to control well
[10] = biological target: T5, biotinylated recombinant mouse IL-12Rβ2 …; test: ELISA, P.E. VHH on biotinylated mIL-12RB2, signal ratio to control well
[11] = biological target: T4, biotinylated recombinant human IL-12Rβ2 …; test: BLI (Octet), P.E. VHH on immobilised biotinylated hIL-12RB2, 1:1 model
[12] = biological target: T5, biotinylated recombinant mouse IL-12Rβ2 …; test: ELISA, P.E. VHH on biotinylated mIL-12RB2

Binder	Response [1]	Response [2]	koff [3]	ELISA binding hIL-12RB2/control [4]	ELISA binding mIL-12RB2/control [5]	koff [6]	dMFI [7]	Response [8]	ELISA hIL12RB2/control [9]	ELISA mIL12RB2/control [10]	koff [11]	binding result [12]
anti-IL-12Rβ2 VHH clone 3CAHS41 (VHH, not shown: small tags and cut ends, tested as periplasmic extract) VHH: QVQLQESGGGLVQAGDSLRLSCAASGRTFDTYIVGWFRQAPGKEREFVSALSWSDDTTIRDDSLRGRFTISRDNAKNTVYLLMNSLKPEDTAVYYCAAKAKPPAATWSSYRNREWYDYWGQGTQVTVSS							971	0.609	8.77	1.35	0.00441 s⁻¹	no binding
anti-IL-12Rβ2 VHH clone 3CAHS102 (VHH, not shown: small tags and cut ends, tested as periplasmic extract) VHH: QVQLQESGGGLVQPGGSLRLSCAASGSILRINLMGWYRQVPGKQRELVAEMSTGGSTTYVDSVEGRFTISRDNAKNTVYLQMNSLKPEDTAVYYCNAKAWQLGRLENDDWGQGTQVTVSS							994	0.323	3.54	1.02	0.00267 s⁻¹	no binding
anti-IL-12Rβ2 VHH clone 2CRH82 (VHH, not shown: small tags and cut ends, tested as periplasmic extract) VHH: QVQLQESGGGLVQAGGSLRLSCAASARTESMYAMAWFRQAPGKEREIVAGIIQSGGTTYISDYMKGRFSIDRGNAENTVYLQMDSLKPEDTAVYSCAAKVSSGTPSDIQISQSRWYDHWGQGTQVTVSS							744	0.426	16.1	1.77	0.00274 s⁻¹	no binding

Now from value to binder:

Response [1]	Response [2]	koff [3]	ELISA binding hIL-12RB2/control [4]	ELISA binding mIL-12RB2/control [5]	koff [6]	dMFI [7]	Response [8]	ELISA hIL12RB2/control [9]	ELISA mIL12RB2/control [10]	koff [11]	binding result [12]	Binder
1.32	0.816	0.00343 s⁻¹	3.52 ratio	8 ratio	0.00474 s⁻¹							anti-IL-12Rβ2 VHH clone 21061 (VHH, not shown: small tags and cut ends, tested as periplasmic extract; also called 3CRHM85) VHH: QVQLQESGGGLVQPGGSLRLSCAASRRTFSKHAMAWFRQAPGKEREFVAVVRWSGIITYYADSVKGRFTISRDDAKNTVYLQMDSLKPEDTAVYYCAAGDYRGNGYYVPGMYDYWGQGTQVTVSS
						520	0.523	5.16	1.04	0.00205 s⁻¹	no binding	anti-IL-12Rβ2 VHH clone 3CRH25 (VHH, not shown: small tags and cut ends, tested as periplasmic extract) VHH: QVQLQESGGGLVQAGDSLRLSCTASGHTFSRYTTIGWFRQAPGKDREFVAAIRWSGDITDYADAVKGRFTISRDNVKNTVYLQMNSLNPEDTAVYYCARGYSEYGVLSRNRGLYAYWGQGTQVTVSS
